Measured values reported in PMC12297318, “Removal of promoter CpG methylation by epigenome editing reverses HBG silencing”.

B1: HBG -53/-50 CpG sites, methylated (dsDNA)
DNA 1: TGAGGCCAGGGGCCGGCGGCTGGCTAGGGAT
DNA 2: ATCCCTAGCCAGCCGCCGGCCCCTGGCCTCA
modifications: 5-methyl-dC at positions 14 and 17 of sense and 14 and 17 of antisense
B2: HBG -53/-50 CpG sites, unmethylated (dsDNA)
DNA 1: B1 DNA 1
DNA 2: B1 DNA 2
B3: BCAT1 promoter CpG sites, methylated (dsDNA)
DNA 1: CCGGCCCTCTCGCGGCGGAGACTCGCGACCTAGCGGATTGCATCAGCAGGAAGAC
DNA 2: GTCTTCCTGCTGATGCAATCCGCTAGGTCGCGAGTCTCCGCCGCGAGAGGGCCGG
modifications: 5-methyl-dC at sense positions 2,11,13,16,24,26,34 and antisense positions 21,29,31,39,42,44,53
B4: BCAT1 promoter CpG sites, unmethylated (dsDNA)
DNA 1: B3 DNA 1
DNA 2: B3 DNA 2

Legend:
MBD2sc Y178F = MBD2sc Y178F (UniProt Q9UBB5 150-393+Q86YP4:138-178, Y178F;internal_change); assay: EMSA; Protein at 50x molar excess over probe, 10 min at room temperature; binding buffer not stated (protein storage: 10 mM Tris-HCl pH 7.5, 150 mM NaCl, 1 mM EDTA, 1 mM PMSF, 10% glycerol); 6% native PAGE in TBE (45 mM Tris, 45 mM boric acid, 1 mM EDTA) at 4 C; conditions: protein: recombinant; tags: pET32a vector tags (Ni-NTA purified); label: 32P 5' end of antisense strand; blunt
[1] = target: MBD2sc WT (MBD2 MBD-IDR-CC fused to GATAD2A CC) (UniProt Q9UBB5 150-393+Q86YP4:138-178, internal_change); assay: as above; conditions: protein: recombinant; tags: pET32a vector tags (Ni-NTA purified); label: 32P 5' end of antisense strand; blunt
MBD2sc WT (MBD2 MBD-IDR-CC fused to GATAD2A CC), sequence (Q9UBB5 other isoform, or with tags, fused parts or gaps): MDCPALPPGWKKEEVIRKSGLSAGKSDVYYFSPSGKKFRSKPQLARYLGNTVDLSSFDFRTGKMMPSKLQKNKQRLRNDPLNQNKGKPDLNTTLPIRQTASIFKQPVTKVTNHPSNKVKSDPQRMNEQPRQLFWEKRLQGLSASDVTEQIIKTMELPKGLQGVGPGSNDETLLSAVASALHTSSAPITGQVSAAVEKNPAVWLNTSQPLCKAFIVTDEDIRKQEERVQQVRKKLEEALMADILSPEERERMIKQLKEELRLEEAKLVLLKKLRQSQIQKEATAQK

MBD2sc Y178F, sequence (Q9UBB5 other isoform, or with tags, fused parts or gaps Y178F/| Y178F Y178F): as the sequence (Q9UBB5 other isoform, or with tags, fused parts or gaps) above, with Y29F counted along it

| Binder | binding result (MBD2sc Y178F) | binding result [1] |
| --- | --- | --- |
| B1 | no binding | binds |
| B2 |  | no binding |
| B3 | no binding | binds |
| B4 |  | no binding |
